We go through 1 molecule from patent US20230140224A1 (APRILBIO, published 2023).

The target of the experiment is T1, human serum albumin (human, UniProt P02768 25-609).
T1 construct: also called HSA; human albumin
In words: ELISA, albumin coated on plate, Fab in solution. Background: ELISA stands for enzyme-linked immunosorbent assay.

T1 sequence (P02768 25-609 limits assumed): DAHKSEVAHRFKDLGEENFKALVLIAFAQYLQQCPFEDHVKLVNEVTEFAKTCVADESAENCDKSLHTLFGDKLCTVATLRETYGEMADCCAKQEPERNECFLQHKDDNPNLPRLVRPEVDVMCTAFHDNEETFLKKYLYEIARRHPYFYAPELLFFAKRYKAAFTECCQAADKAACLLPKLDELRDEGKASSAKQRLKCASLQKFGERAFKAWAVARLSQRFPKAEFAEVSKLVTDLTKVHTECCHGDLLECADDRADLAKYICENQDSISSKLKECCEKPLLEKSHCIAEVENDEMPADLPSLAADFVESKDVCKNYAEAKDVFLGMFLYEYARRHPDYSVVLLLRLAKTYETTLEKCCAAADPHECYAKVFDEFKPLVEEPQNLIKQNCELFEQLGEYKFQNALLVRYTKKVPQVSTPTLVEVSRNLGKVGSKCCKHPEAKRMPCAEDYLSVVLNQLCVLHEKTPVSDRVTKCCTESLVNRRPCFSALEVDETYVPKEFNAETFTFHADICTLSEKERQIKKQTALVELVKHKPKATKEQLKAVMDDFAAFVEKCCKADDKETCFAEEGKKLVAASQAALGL

B1: FL335 Fab antibody fragment (Fab, V domains shown)
VH: QVQLVQSGGGPVKPGGSLRLSCAASGFMFRAYSMNWVRQAPGKGLEWVSSISSSGRYIHYADSVKGRFTISRDNAKNSLYLQMNSLRAEDTAVYYCARETVMAGKALDYWGQGTLVTVSS
VL: DIVLTQSPGTLSLSPGETATLSCRASQSVGSNLAWYQQKPGQAPRLLIYGASTGATGVPARFSGSRSGTDFTLTITSLQPEDFATYYCQQYYSFLAKTFGQGTQLEIKR
notes: also called FL355 Fab antibody fragment; feline chimeric antibody fragment
With B1, the binding result is “binds”.
